# The supplement of paper PMC9732359
# ± gives the uncertainty stated by the source.
# Assay: protein stability index of a GFP-peptide fusion (yeast GPS) (PSI 1-4); higher = more stable; sorted into four equal gates, so the index is relative within each strain
# Method in brief: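 Yeast carrying a pooled library were grown to mid-log phase in leucine-free medium. Each library plasmid expresses Cherry and has a tiled 17-residue yeast protein peptide fused downstream of GFP. Cells were sorted into four equal gates by GFP/Cherry ratio, and plasmids from each gate were PCR-amplified, Illumina-sequenced and assigned to strains by barcode. Summing, across gates, the read frequency times the gate number gave each peptide's protein stability index.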
Sequence,protein stability index (doa10∆),protein stability index (pdr5∆),protein stability index (san1∆),protein stability index (ubr1∆)
HGMTLRESFEDNVVRFL [RPO21],3.27 ± 0.098,3.09 ± 0.12,3.29 ± 0.089,3.17 ± 0.078
LTQLLSMMSDGIEHFDI [RPO31],2.93 ± 0.073,3.05 ± 0.085,3.1 ± 0.052,2.72 ± 0.089
LESEIASSSAKLIEKKS [SMC2],2.69 ± 0.072,3.03 ± 0.058,3.08 ± 0.04,3 ± 0.055
AKHAVSEGTRAVTKYSS [HTB1],3 ± 0.08,3.21 ± 0.11,3.41 ± 0.075,3.12 ± 0.09
IDKLEDLSRIMDWLDNW [ITC1],2.58 ± 0.29,2.67 ± 0.23,–,–
QLYKRDPVSGAILVPMT [YJR042W/NUP85],1.95 ± 0.18,1.75 ± 0.24,2.6 ± 0.099,2.67 ± 0.13
LADDDEERFSELFKGYL [RPL5],1.59 ± 0.13,2.05 ± 0.14,2.84 ± 0.2,3.01 ± 0.28
KFGACVAQGIMNAGGRN [RPN2],3.02 ± 0.14,2.73 ± 0.28,2.52 ± 0.23,2.52 ± 0.13
SGDESNVISSKDWELEA [YDL116W/NUP84],3.45 ± 0.08,3.36 ± 0.052,3.45 ± 0.06,3.41 ± 0.066
WAEHLSDEVKRRFYKNW [RPL3],3.31 ± 0.2,2.9 ± 0.25,3.34 ± 0.14,3.37 ± 0.17
KKLKPIVAKYDPPIIIF [PRP28],2.94 ± 0.069,2.59 ± 0.075,2.73 ± 0.086,2.37 ± 0.052
AECISLICSIGLHSSEY [ECM29],1.98 ± 0.053,2.38 ± 0.051,2.2 ± 0.092,2.62 ± 0.048
VGEEETSQKMKKMVYVL [SRP54],3.31 ± 0.11,3.38 ± 0.11,3.31 ± 0.078,3.17 ± 0.077
ALSLHREILCYSKDAKE [FAS2],1.78 ± 0.028,1.76 ± 0.027,1.85 ± 0.044,1.82 ± 0.021
DELITEGNEKLAAVPAA [RPP2A],2.71 ± 0.09,2.92 ± 0.099,2.74 ± 0.083,2.78 ± 0.09
TSTDFPGFSKDAENEWN [RPC40],–,3.1 ± 0.22,–,–
LYKLNDKIAVAVAGLTA [PRE9],2.29 ± 0.056,2.14 ± 0.052,2.18 ± 0.095,2.31 ± 0.043
VPMKEENLEESFLSKHA [SSN2],3.43 ± 0.094,3.69 ± 0.14,2.98 ± 0.2,3.35 ± 0.25
DPLLSLYNFLHKYVLTL [RGR1],2.5 ± 0.043,2.12 ± 0.07,2.49 ± 0.05,2.12 ± 0.046
MSACVGQQSVEGKRIAF [RPO21],2.27 ± 0.26,1.97 ± 0.16,1.62 ± 0.24,2.63 ± 0.24
RESRIVSTEGNVPQTLA [RPL21A],2.13 ± 0.08,2.25 ± 0.082,2.94 ± 0.1,2.3 ± 0.095
QWFEAHYGQTLGKKKNV [RPS8A],2.556 ± 0.025,2.876 ± 0.025,2.44 ± 0.027,2.647 ± 0.022
ADDEKSDEEEVTEMSNN [BRR2],3 ± 0.06,3.02 ± 0.042,2.84 ± 0.054,3.1 ± 0.048
TPMTRISELPPQIRQEI [YGL172W/NUP49],2.84 ± 0.074,3.11 ± 0.055,2.65 ± 0.051,2.86 ± 0.043
HTLDIINVLTDQNPIQV [RPS5],1.88 ± 0.066,2.33 ± 0.077,2.12 ± 0.096,1.86 ± 0.055
DGTAQLSNNKTDEEEQL [YJR042W/NUP85],2.77 ± 0.25,3.16 ± 0.14,3.27 ± 0.15,3.18 ± 0.098
